The nanobody polyreactivity screen of Harvey et al. (2022)

Test: yeast display, Sf9 membrane polyspecificity reagent, FACS + sequencing; frameworks hold sequencing errors
Outline: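 Sorting gates, low and high (top ~1%), were placed on anti-HA fluorescence to track expression and on streptavidin fluorescence to track reagent binding. A clone's polyreactivity label is taken from the gate it came out of. The reagent was 10% biotinylated, detergent-solubilized Sf9 membrane, applied for 1 hour at 4 °C to galactose-induced yeast display cells.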

| Sequence | polyreactivity (PSR sort gate) |
| --- | --- |
| QVQLVESGGGLVQAGGSLRLSCAASGSTFAYNAMGWYRQAPGKERELVASITVSVGSTYYADSVKGRFTISRDNAKNTVYLQMNSLKPEDTAVYYCAARVTRRSSTYWVPRTGYYYWGQGTQVTVSS | low polyreactivity |
| QVQLVESGGGLVQAGGSLRLSCAASGFTFWRYAMGWYRQAPGKEREFVAVISISSGTTYADSVKGRFTITRDNAKNTVYLQMNSLKPEDTAVYYCAAAIGVYYIEYRYLGTVEYWGQGTQVTVSS | low polyreactivity |
| QVQLVESGGGLDQAGGSLRLTSAASGSTFYRNAMGWYRQAPGKERELVAAITIRGGSTSFADSVKGRFTISRDNAKNTVYLQMNSLKPEDTAVYYCNADPRAEPGDWSYEMDYWGQGTQVTVSS | low polyreactivity |
| QVQLQESGGGLEQAGGSLRLSCAESGIIFDNPNMGWYRQAPGKERELVATINSGATTNYADSVKGRFTISRDNAKNTVYLQMNSLIPEDTAVYYCSVDLSPTYFYVWGQGTQVTVSS | high polyreactivity |
| QVLLVESGGGLVQEGGSLRLSCSASGFTFDSNAMGWYRQAPGKERELVAAISTGGSTYYADSVKGRFTISRDNAKNTVYLQMNSLKPEDNAVYYCAREPPYPDTWYGYWGQGSQVTVSS | low polyreactivity |
| QVQLVESGGGLVQAGGSLRLSCAASGIIFSDYDMGWYRQAPGKERELVAAISWSGGSTYYADSVKGRFTISRDNAKNTVYLQMNSLKPEDTAVYYCAVDSQRQVTSRDDYWGQGTQVTVSS | low polyreactivity |
| QVQLVESGGGLVQAGGSLRLTCAASGSIYKYKAMGWYRQAPGKERELVAAIRWSGVGTRYADSVKGRFTISRDNAKNSLYLQMNSLKREDTAVYYCAADVSKYHDGHEYDYWGQGTQVTVSS | low polyreactivity |
| QVQLVESGGGLVQAGGSLRLSCAASGSTFYRYAMGWYRQAPGKERELVAAITRSDGITYYADSVKGRFTISRDNAKNTVYLQMNSLKPEDTAVYYCAKGYVGSFYDDFYYWGQGTQVTVSS | low polyreactivity |
| QVQLVASGGGLVQAGGSLRLSCAASGSIFTHNALGWSRQAPGNERALVAAISSGGSTNYADSVKGRFTISRDNAKNTVYLQMNSLKPEDTAVYYCAKSIDGWYWRRRRYDYWGQGTQVTVSS | low polyreactivity |
| QVQLVESGGGLVQAGGSLRLSCAASGSTFPDYAMGWYRQAPGKERELVAVITIRGGSTYYADSVKGRFTISRDNAKNTVYLQMNSLKPEDTAVYYCAATGQLQGWYDMYYWGQGTQVTVSS | low polyreactivity |
| QVQLVESGGGLVQAGGSLRFTFGATGIIFYRNTMGWYSLAPGKHRELVASLSRGGSTNYADSVKGRFTISRDNAKTTVYLQMNRLKPEDTAVDYCAAYTDIPLSYYRGYTMDYWGQGTQVTVSS | low polyreactivity |
| QVQLVESGGGLVQVGGSLRLSCAASGRTFWWYAMGWYRQAPGKERELVAAISRGSTNYADSVKGRFTISRDNAKNTVYLQMNSLKPEDTAVYYCNAVSLYQSHDYDYWGQGTQVTVSS | low polyreactivity |
| QVQLVESGGGLVQAGGSLRLSCAASGSIFFPYAMGWYRQATGKERELVASINSGGITTYADSVKGRFTISRDNAKNTVYLQMNSLKPEDTAVYYCARYVSYRWVRYNYWGQGTQVTVSS | high polyreactivity |
| QVQLVESGGGLVQAGGSLRLSCAASGRIFQANAMGWYRQAPGKERELVAAISWSGGSTYYADSVKGRFTISRDNAKNTVYLQMNSLKPEDTAVYYCAKDYVHQYGVYKVWANNYNYWGQGTQVTVSS | low polyreactivity |
| QVQLVESGGGLVQAGGSLRLSCAASGSIFVGYGAMGWYRQAPGKERELVAAITSGTSTYYADSVKGRFTISRDNAKNTVYLQMNSLKPEDTAVYYCAARGFLKYVTEFDYWGQGTQVTVSS | low polyreactivity |
| QVQLVESGGGLVQAGGSLRLSCAASGSTFVSYAMGWYRQAPGKERELVAAISFSDDSTYYADSVKGRFTISRDNAKNTVYFQMHSLKPEDTAVYYCAAASDSYVRVLEGFTFDYWGQGTQVTVSS | low polyreactivity |
| QVQLVDSAGGLVQAGGSLSLSCAASGITFVSKVMGWYRQAPGKEREFVAAITGRGDSTYADSVKGRFTNSRDNAKNCVYLQMNSLKPEDTAVYYCAAEYSVPYRGWDGYEYWGQGTQVTVSS | low polyreactivity |
| QVQLVESGLGLVQAGGSLRLSCAASGFIFGSYAMGWYRQAPGKERELVAAISWSGGGTYYADSVKGRFTISRDNAKNTVYLQMNSLKPEDTAVYYCNARQFSGLGYWGQGTQVTVSS | high polyreactivity |
| QVQLVESGGGLVQAGGSLRLSCAASGRIFTGNAMGWYRQAPGKEREWVATITRRGGSTYYADSVKGRFTISRDNAKNTVYLQMNSLKPEDTSVYYCAANRMFSNDKYGYWGQGTQVTVSS | high polyreactivity |
| QVQLVESGGGLVQAGGSLRLSCAASGITFARYAMGWYRQAPGKETELVAALSKRGGRTYYADSVKGRFTISRDNAKNTVYLQMNSLKPEDTAVYYCATDYYVSTDYNYWGQGTQVTVSS | high polyreactivity |
| QVQLVESGGGLVQAGGSLRLSCAASGRTFAYYAMGWYRQAPGKERELVAAISSGGGSTYYADSVKGRFTISRDNAKNTVYLQMNSLKPEDTAVYYCNKGFEYWGQGTQVTVSS | high polyreactivity |
| QVQLVESGGGLVQAGGSLRLSCAASGRIFPKYAMGWYRQAPGKERELVATINSGTRTYADSVKGRFTISRDNAKNTVYLEMNSLKPEDTAVYYCARRGYYYDYWGQGTQVTVSS | high polyreactivity |
| QVQLVESGGGLVQAGGSLRLSCAASGSTFQYYAMGWYRQEPGKEREFVASISGSGGSTNYADSVKGRFTISRDNAKNTVYLQMNSLKPEDTAVYYCAKEYVTEFQGYYYWGQGTQVTVSS | low polyreactivity |
| QVQLVESGGGLVQAGGSLRLSCAASGRIFPSYAMGWYRHAPGKERELVAAITSSDSTYNADSVKGRFTISRDNAKNTVYFQMNSLKPEDTAVYYCAAAYSYSGWWWFDYWGQGTQVTVSS | high polyreactivity |
| QVKILESGGGLVQAVCSLRLSCASGSTYLYAMGRYRQAPVKEREMVATISSTGSTYYADSVKGRFTISRDNAKNTVYLQMNSLKPEDTAVYYCAADVCNNGWIYGSYDEYDYWGQGTQVTVSS | high polyreactivity |
| QVQLVESGGGLVQAGGSLRKSCAASGRTFGYNTMGWYRQAPGKERELVAAITWSGGRTYYADSVKGRFTISRDNAKNTVYLQMNSLKPEDTAVYYCIAVIGREFDYWGQGTQVTVSS | high polyreactivity |
| QVQLVESGGVLVQAGGSLRLSCAASGSIFWPNSMGWYRQAPGKERELVAGISYSGGRTYYADSVKGRFTISRDNAKNTVYLQMNSLKPEDTAVYYCAALSRRDYNYWGQGTQVTVSS | high polyreactivity |
| QVQLVESGGGLVQAGGSLRLSCAASAGIIRTYAMGWYRQAPGKEMELVAAITFSAGSTFYADSVKGRFTISRDNAKNTVYLQMNSLKPEDTAVYYCNKDGGGDSYWYDYWGQGTQVTVSS | low polyreactivity |
| QVQLVESGGGRVQAGGTHRLRSAASGFTFRQYAMGWYRPAPGKERELLAAISRSGSRTYYADSVKRRFTISRDNAKHTVYLQMNCLKPEDTAVYYCYAVFSTFTGEYYWGHGTQVTVSS | high polyreactivity |
| QDQLVESGGGLVQAGGSLRLSCAASGNIFTSNAMGWYRQAPGKERELVAANTSGGSTYYADSVKGRFTISRDNAKNTVYLQMYSLKPEDTAVYFCASLRRPHLRPYYYWGQGTQGTVSS | high polyreactivity |
